This data set in a line: soluble on expression in E. coli; label from the status in PepcDB or PDB records.
For the sequence “MDPFGKYIKAVSARAADKEILKKAQDGGIVSAAYIYGLESGLLDGVIIADKEDGFAAAPKVATTREEILNAAGTKYTVCPNLSVVKSAVREYGCDKLGFVGTPCQVRSIRKAIKYPVGYRHVPDKIALIMGIFCMENFPYNGMKAIVEEHCGIKMDDVVKTDIGKGKFWVYSKWGDVKTIPLKDTHPYEQGSCHVCMDYTAELADISTGSVGSPDGWSTIFVRTAKGEEYLNKMVEAGALETKEIDAVKPGLGLVEKLALTKKEKNGKEVEHRKEIGLPVPYLEHHHHHH”, the “soluble on expression in E. coli” value is listed as “not soluble”.

Consider “MDPKKADIIRLEALPQDLLGGIVAKVGATTAEDFHNCILVCKELGASANDKHVFKTLNLALLVKKPLSGTQTPSYYENMS”, for which the “soluble on expression in E. coli” value is recorded as “soluble”.

On to “MDPLFLLLPYISSVGKEGKFQSVKQMVMDEDYPGCSRLLQCKQGLDSLHHVADEKEVNDQKYHKYNLEKTLEWLKKKVQRTVNALKKGNISVGGGVKSSTFVRVKHEDASEEDYLRYAHGLISEYISEDLSKDLLKHLELPEISSPKEAEPPSKKRKLSDKPVEAGEDYTKFNSADFARKPPKKMTAAQKSLAKADKTGMKSLASFFSPKVKQEKN”, for which the “soluble on expression in E. coli” value was “not soluble”.

In the case of “MDPMYLLVDVGNTHSVFSITEDGKTFRRWRLSTGVFQTEDELFSHLHPLLGDAMREIKGIGVASVVPTQNTVIERFSQKYFHISPIWVKAKNGCVKWNVKNPSEVGADRVANVVAFVKEYGKNGIIIDMGTATTVDLVVNGSYEGGAILPGFFMMVHSLFRGTAKLPLVEVKPADFVVGKDTEENIRLGVVNGSVYALEGIIGRIKEVYGDLPVVLTGGQSKIVKDMIKHEIFDEDLTIKGVYHFCFGD”, the “soluble on expression in E. coli” value is recorded as “soluble”.

“MDPRGILKAFPKRQKIHADASSKVLAKIPRREEGEEAEEWLSSLRAHVVRTGIGRARAELFEKQIVQHGGQLCPAQGPGVTHIVVDEGMDYERALRLLRLPQLPPGAQLVKSAWLSLCLQERRLVDVAGFSIFIPSRYLDHPQPSKAEQDASIPPGTHEALLQTALSPPPPPTRPVSPPQKAKEAPNTQAQPISDDEASDGEETQVSAADLEALISGHYPTSLEGDCEPSPAPAVLDKWVCAQPSSQKATNHNLHITEKLEVLAKAYSVQGDKWRALGYAKAINALKSFHKPVTSYQEACSIPGIGKRMAEKIIEILESGHLRKLDHISESVPVLELFSNIWGAGTKTAQMWYQQGFRSLEDIRSQASLTTQQAIGLKHYSDFLERMPREEATEIEQTVQKAAQAFNSGLLCVACGSYRRGKATCGDVDVLITHPDGRSHRGIFSRLLDSLRQEGFLTDDLVSQEENGQQQKYLGVCRLPGPGRRHRRLDIIVVPYSEFACALLYFTGSAHFNRSMRALAKTKGMSLSEHALSTAVVRNTHGCKVGPGRVLPTPTEKDVFRLLGLPYREPAERDW”: the “soluble on expression in E. coli” value is “soluble”.

For “MDPTQISHLALDIGGTLIKLVYFSANGDYSEESRNGCSVVKGRLCFAKFETRKIDDCLEFIRFNILHHSEVTIQVYSNRMAKATGGGAFKFADLFKEKLGILFDKEDEMCSLVGGVNFLLKTVPREAFTYLDGQKKFVEIDHNDLYPYLLVNIGSGVSMIKVDGDGKYERISGTSLGGGTFLGLGKLLTKCKSFDELLELSHHGNNRVIDMLVGDIYGGTDYSKIGLSSTAIASSFGKAISDGKELEDYQPEDVARSLLRMISNNIGQIAYLNALRFGLKRIFFGGFFIRGLEYTMDTISVAVHFWSRGEAKAMFLRHEGFLGALGAFTSYNDQSHNDLKPHHHTVQRAILNCSGHNFRHIPVTSNLNESETIECSINLV”, the “soluble on expression in E. coli” value is “soluble”.

On to “MDQALLDGGYRCYTGEKIDVYFNTAICQHSGNCVRGNGKLFNLKRKPWIMPDEVDVATVVKVIDTCPSGALKYRHK”, for which the “soluble on expression in E. coli” value is “soluble”.

For the sequence “MDQLSEKQIWYYHIIPEYQTEKSFYACVRRSGMIKFDTFYFPHMLSARETQRSIKFGDGVWSGCLYDPDIYTDGKISIQGVGGVLFPREAEIGGCVCLCLIFLIKLGLSTKYMKSHVSFDVSCDL”, the “soluble on expression in E. coli” value was “not soluble”.

With “MDQNPNYNFGYGQAYGSGTDHTSDSTNNYNWASQWSQPESAASLATHTFPQYVSQQQQQQQQQAQQQAQNTYAAMNPISTFMQQQQRAQTFPQKKYGQQGGAPKPSAIRNNNFGAFGGGHALSQEWVQPMSQNQMGGPQGNRFFNNQKGGPFNQNKPNWRQNKPKGPAAPKKFDSTGKSPAMLLHELFKDVSEEYTEVEGVPKKYCCTLKVNGRTFQMESVNKKAAKQKCSELVVRDLRPDVHVTPFEEGVAAKAAAPVKKEIDAASGNGQNNKRNLLQADAISNQPTPKKVSAVKKAKLQLTPVESALSLLDLMQKIIAESAEKYSPVFEASEVPKDPEIPEVEVKKEEVDTNGENVANEKKSGWRKNETMHNVTLKFVEQNKQYTKMGPSRGVLKDMVIREALRDLFNVSHADITTVARRHASNRLGHDTTILQCLNTICSILNCTLTIECEPAEDRPLGIGRAYFMAKCTIIDHNENDLKFEVKSSSLASKAMAKDWVAQETLKNYFAIDPSSCVKTDAVSSQGPCALLHAMLNKQTKQKCKIAYEFKDNVPPVAGQATTTFYCECVIDETDRYIGVGRSKKLAKSEAAMQALKKLFKIDYDPAGNYPLALTSRAMTESKVSPLCRHIAEFCKREYHQMTEYYQIPPSNLFAAFLLVNAQEEKRVLAMGSSIQYIVEPDTLSGANGTSLLHLDAIILARRAMLKAFIHELSTVDSECSIFEKKEEGKAALKPNLRLVLYSNYSPPCIHAVDDAATKKLSYVTPTNLTCVPDDVLTYEQIKETKSLRVHCTADKLFKWNTLGIQGALLSNVLHPIFIDNIFFGSEAPVSDESLSYALQGRLGPNENEREIIVESMPVQMRMHMGISHLWHRGVDSVETLDYNTGRTSKGSPSRVCKAEIFEAYRKLNGVDQAVVNYAKAKEMASEYQYEKKVFYEKLEAAGLGKWQTKPAELVDSFTLAAFD”, the “soluble on expression in E. coli” value is listed as “not soluble”.

With “MDRGTVFTFSPKGDIIELPVGATALDFAFMVHTQVGCKCVGAKVNGRMVTIDHKLKSGDKVEIITSKNSKGPSLEHHHHHH”, the “soluble on expression in E. coli” value is reported as “not soluble”.

For “MDRLQLYESKKLRRETPLSPLLRIFAGQSVHNHRPMYFRDVAGLEDLKTYLRRTAQTRQIAHAQLFAGEEGGGAFPLALAYARYLNCQMPTDTDACGHCPSCVKYDALAHPDLFFVYPVVNASSSPAPSDDYIRQWREMLGSESYFTPADWLEYIKAGNSQPIIYSKEAEAVEQKLSFRIYEASYRVVMIWQPERMNEAMANKLLKLIEEPPEHTLFFMISSEPDKVLGTIRSRTQLINVRLLHEIEIVEALSRNNQGNTADIIRIAHLAEGNYRRAMDLYRGEWADRDNFVLMGRMMGSIIKGDPSKMRPVADELAALGRVSQIGFLTYCLRLFRELYISRVGVAKLNYLSPEEESFVDMLSGGITGQNIRPVMEEVELAIRHIRQNGNGRMIFFDLLLRLTAALAPALRAKGLK”, the “soluble on expression in E. coli” value was “not soluble”.

Regarding “MDRRFPPFSPFFNHGRRFFDDVDFDRHMIRPYWADQTMLTGHRVGDAIDVVNNDQEYNVSVDVSQFEPEELKVNIVDNQLIIEGKHNEKTDKYGQVERHFVRKYNLPTGVRPEQIKSELSNNGVLTVKYEKNQEQQPKSIPITIVPKRN”, the “soluble on expression in E. coli” value is reported as “not soluble”.

With “MDRSAEFRKWKAQCLSKADLSRKGSVDEDVVELVQFLNMRDQFFTTSSCAGRILLLDRGINGFEVQKQNCCWLLVTHKLCVKDDVIVALKKANGDATLKFEPFVLHVQCRQLQDAQILHSMAIDSGFRNSGITVGKRGKTMLVVRSTHGLEVPLSHKGKLMVTEEYIDFLLNVANQKMEENKKRIERFYNCLQHALERETMTNLHPKIKEKNNSSYIHKKKRNPEKTRAQCITKESDEELENDDDDDLGINVTIFPEDY”, the “soluble on expression in E. coli” value was “not soluble”.

For “MDRSERLIQLISEEGIDAFLIMNIENSARASSVYFSGFTGSFSIILISENTRLLITDSRYTVQAKQETDFEVREVKGGDFIDVLKKTVNDLKIKTIALEEERVSLSLFRRISSAFGDRKFIGIDDEVKQMRMVKDEGEIEKIKQAIEISERAFLETVQQIRAGMTEKEIAALLEYTMRKEGAEGVAFDTIVASGCRSALPHGKASDKVVERGDVIVIDFGATYENYCADITRVVSIGEPSDEVKEVHSIVLEAQERALKIAKAGVTGKLLDSVAREFIREKGYGEFFGHSLGHGIGLEVHEGPAISFRNDSPLPENVVFTVEPGIYLEGKFGIRIEEDVVLKEQGCEILTTLPRSIFVV”, the “soluble on expression in E. coli” value is “soluble”.

“MDRVIEDKELGRLVVRDNVRAKRLVFRTKADAIYISIPLGVTMREVKEAIEKLRPRLLDSRQKLVRPLIDLNYRIETEYFKLSLVSGKRERFLAHSELGEMRIICPPTADFTDSNLQDWLRKVIEEALRRNAKIILPPRLYMLSEKHRLPYESVQINSSRGRWGSCSSRKKINLSYFLVLLPKHLIDYVLLHELCHTCEMNHGDRFWNLLNGLTDGKALELREELKRYKTEILEHHHHHH”: the “soluble on expression in E. coli” value is “not soluble”.

Turning to “MDSDSGEQSEGELSPGHESFNSKSLALQAQKKILSKMATMAVANLLTDDTSSEILDELYKASREYTKSKKEAHKIIKDVIKIALKIGILYRNHQFSPEEMETVERFKKKMNQAAMTVVSFYEVEYTFDRGILSELLLECRDLLHELVEHHLTMRSHGRIDHVFNHFADVDFLTELYGPSEDYRLNLRKICDGINKLLDEGTL”, the “soluble on expression in E. coli” value is on record as “not soluble”.

Turning to “MDSGMVTPELKKAFAERGIDIIPVDVGTKMLVNELHPSHHDSTQVVIGSPIIPAPGNIDPQLRSYRIRRRMTVEANPFLLDHVIAGTPVLPATCGMSWMINACEECYPGYRYFRCQDFKILKGITFNDKVASEHILEIQEVAKHGSESIEFKTKVLSKTPEGKIHYHFSAHITIVRELPAAPVYESLDMTEDHTIGAIGKDFYQKGGLSLFHGISFQQITRVLNINSQKITVECCWAEIPLETQGQFPVKWHNPYATDLSTQPLWLWLSHVHQEVCLPGQITKSEQFRAIPRNKPFYVSCEIEHKTPSGVTADIILHDREGKIYFRIYQAKAIIAPMNLHLEHHHHHH”, the “soluble on expression in E. coli” value is listed as “not soluble”.

Regarding “MDSKSHGWLIGANGTILETHDGGEHWEPRTFDFLRMDEEINYRFESISCYGNEGWIVGKPPILLHTQNGGKDWERIPLSSKLPGEPVLITALGPNRAELATTAGAIYTTDNGGKNWKALVKETIDATLNRTTSSGVTGASYYTGTVISITRDCNGYYLAISSRGNFYVTWHPGQEYWTPHPRDSSRRIQSMGFVQNDIHKGLWMANNGGFLGFSPPNPSLDTVSSIPFQRVDIRTGGYGILDVAFHQQKRNEVWASVGSGILYRSFDGGKHWEKDPWLDHLGSVLYRIKFVENSGFILGAKGTLLRYNG”, the “soluble on expression in E. coli” value was “soluble”.

For the sequence “MDSNEIIKRVRERVYREVKKKYTRDDLDTRIQDVLYYRSETYMKLVSFANGKRIKKLADPRKFEKFMDTKGVKIVAEVLDGLNNQPKMQAMEYEQKVLTKVRQWYQKKNHPELVDLEEEAFEQLVEKNIIYKKMKKRLYEEQDNQGFVYSDNFDMQLIRDSCDIEEALYLDITLGDY”, the “soluble on expression in E. coli” value is “not soluble”.

On to “MDSQAQVLILLLLWVSGTCGDIVMSQSPSSLAVSAGEKVTMSCKSSQSLLNSRTRKNYLAWYQQKPGQSPKLLIYWASTRESGVPDRFTGSGSGTDFTLTISSVQAEDLAVYYCKQSYNLYTFGGGTKLEIKRADAAPTVSIFPPSSEQLTSGGASVVCFLNNFYPKDINVKWKIDGSERQNGVLNSWTDQDSKDSTYSMSSTLTLTKDEYERHNSYTCEATHKTSTSPIVKSFNRNEC”, for which the “soluble on expression in E. coli” value is listed as “soluble”.

“MDSRPGLRTTSPSSGTRTGRSNTRTLPPDPLLECAGRTRWPFGIREPDEDYPVTIIETEGFLNLVSVSAVALNQPFSLFFGAGVVLIPVRFECMRTPPVPAGRGGRVIRIVKFGIVRHLFSLLAQQVPVVQADGWIVNQNDQKKQNPPKRVKCGCVEDA”: the “soluble on expression in E. coli” value is “not soluble”.

The record behind these values is the DeepSol protein solubility set.
